Data reported in the Human Domainome abundance scans (Beltran et al. 2025).
± gives the uncertainty stated by the source.

B1: POU domain, class 4, transcription factor 1, residues 266 to 347; numbered along this chain, Q01851 (parent)
chain: RELEAFAERFKQRRIKLGVTQADVGSALANLKIPGVGSLSQSTICRFESLTLSHNNMIALKPILQAWLEEAEGAQREKMNKP

Variants of: B1
Assay: abundance fitness (aPCA) (normalised: wild type 0, dead -1); higher = more abundant; growth selection in yeast, the domain comes from the species named
Settings: Homo sapiens

R13A and L60S are within error of each other in abundance fitness: -0.026 ± 0.035 for the first, -0.253 ± 0.23 for the second.

L60T and L60E are within error of each other in abundance fitness: -0.452 ± 0.31 for the first, -0.581 ± 0.26 for the second.

First: E48P
Second: K32N
The abundance fitness of the first is lower: -0.856 ± 0.076 for the first, -0.076 ± 0.27 for the second.

K32F and K32C are within error of each other in abundance fitness: 0.031 ± 0.26 for the first, -0.116 ± 0.094 for the second.

K32R and R76T are within error of each other in abundance fitness: -0.058 ± 0.054 for the first, 0.008 ± 0.034 for the second.

R76V and R76N are within error of each other in abundance fitness: -0.009 ± 0.023 for the first, 0.026 ± 0.063 for the second.

R76Q and R76F are within error of each other in abundance fitness: -0.003 ± 0.035 for the first, -0.032 ± 0.034 for the second.

Going from V19S to V19P, the abundance fitness falls from -0.062 ± 0.062 to -0.827 ± 0.25.

V19L and V19C are within error of each other in abundance fitness: -0.016 ± 0.049 for the first, -0.104 ± 0.1 for the second.

Compared with V19R, V19E is lower in abundance fitness: -0.019 ± 0.037 for the first, -0.396 ± 0.081 for the second.

Compared with V19G, V19H is higher in abundance fitness: -0.55 ± 0.061 for the first, -0.14 ± 0.11 for the second.

Going from V19Q to L31N, the abundance fitness falls from 0.11 ± 0.076 to -0.168 ± 0.061.

L31Q and L31M are within error of each other in abundance fitness: -0.04 ± 0.038 for the first, 0.003 ± 0.035 for the second.

First: L31S
Second: L31K
The abundance fitness of the first is lower: -0.066 ± 0.031 for the first, 0.038 ± 0.039 for the second.

A27G and A27I are within error of each other in abundance fitness: -0.153 ± 0.038 for the first, -0.245 ± 0.17 for the second.

A27E and E69L are within error of each other in abundance fitness: -0.035 ± 0.049 for the first, -0.036 ± 0.042 for the second.

First: E69S
Second: F47I
The abundance fitness of the first is higher: -0.054 ± 0.052 for the first, -0.917 ± 0.28 for the second.

Compared with F47A, F47V is higher in abundance fitness: -1.03 ± 0.18 for the first, -0.706 ± 0.095 for the second.

F47E and K11P are within error of each other in abundance fitness: -0.819 ± 0.15 for the first, -0.833 ± 0.24 for the second.

K11A and K11R are within error of each other in abundance fitness: -0.023 ± 0.056 for the first, 0.023 ± 0.039 for the second.

First: K11T
Second: K11G
The abundance fitness of the first is higher: -0.017 ± 0.093 for the first, -0.465 ± 0.061 for the second.

First: K11E
Second: K16C
The abundance fitness of the first is lower: -0.476 ± 0.11 for the first, -0.004 ± 0.055 for the second.

G35S and G35A are within error of each other in abundance fitness: -0.29 ± 0.23 for the first, -0.397 ± 0.26 for the second.

Compared with L3V, L3D is lower in abundance fitness: -0.053 ± 0.038 for the first, -0.366 ± 0.099 for the second.

L3Y and L3M are within error of each other in abundance fitness: -0.107 ± 0.084 for the first, -0.029 ± 0.048 for the second.

First: L3W
Second: A74W
The abundance fitness of the first is lower: -0.352 ± 0.044 for the first, -0.137 ± 0.029 for the second.

A74H and A74N are within error of each other in abundance fitness: -0.009 ± 0.042 for the first, -0.019 ± 0.043 for the second.

A74Y and A74K are within error of each other in abundance fitness: 0.002 ± 0.046 for the first, -0.009 ± 0.034 for the second.

L39T and T51I are within error of each other in abundance fitness: -0.138 ± 0.085 for the first, -0.205 ± 0.041 for the second.

T51S and T51R are within error of each other in abundance fitness: 0.018 ± 0.031 for the first, -0.017 ± 0.035 for the second.

T51K and T51M are within error of each other in abundance fitness: 0.015 ± 0.044 for the first, -0.004 ± 0.044 for the second.

T51H and Q21R are within error of each other in abundance fitness: 0.003 ± 0.036 for the first, -0.058 ± 0.041 for the second.

S53P and S53Y are within error of each other in abundance fitness: 0.02 ± 0.055 for the first, -0.131 ± 0.19 for the second.

S53L and S53I are within error of each other in abundance fitness: -0.518 ± 0.094 for the first, -0.173 ± 0.31 for the second.

S53C and S53N are within error of each other in abundance fitness: 0.004 ± 0.089 for the first, -0.114 ± 0.1 for the second.

First: S53W
Second: I15D
The abundance fitness of the first is lower: -0.533 ± 0.094 for the first, -0.211 ± 0.06 for the second.

I15S and A5H are within error of each other in abundance fitness: -0.138 ± 0.029 for the first, -0.063 ± 0.099 for the second.

Going from A5C to A5K, the abundance fitness rises from -0.162 ± 0.099 to 0.042 ± 0.087.

S40E and S40I are within error of each other in abundance fitness: -0.063 ± 0.051 for the first, -0.202 ± 0.17 for the second.

Going from M57A to M57K, the abundance fitness falls from -0.132 ± 0.047 to -0.901 ± 0.15.

M57V and M57Q are within error of each other in abundance fitness: -0.273 ± 0.041 for the first, -0.197 ± 0.064 for the second.

Going from M57R to M57H, the abundance fitness rises from -0.775 ± 0.058 to -0.399 ± 0.16.

M57G and L52C are within error of each other in abundance fitness: -0.449 ± 0.04 for the first, -0.351 ± 0.079 for the second.

Going from L52D to L52Y, the abundance fitness falls from -0.229 ± 0.084 to -0.701 ± 0.26.

I33D and I33N are within error of each other in abundance fitness: -0.262 ± 0.054 for the first, -0.219 ± 0.052 for the second.

First: I33S
Second: I33V
The abundance fitness of the first is lower: -0.23 ± 0.034 for the first, 0.05 ± 0.027 for the second.

S38W and S38G are within error of each other in abundance fitness: -0.095 ± 0.14 for the first, -0.203 ± 0.13 for the second.

P62Q and P62L are within error of each other in abundance fitness: -0.393 ± 0.092 for the first, -0.524 ± 0.066 for the second.

Going from P62Y to P62T, the abundance fitness rises from -0.562 ± 0.21 to -0.192 ± 0.07.

T20L and S42K are within error of each other in abundance fitness: -0.078 ± 0.19 for the first, 0.093 ± 0.065 for the second.

S42Y and S42I are within error of each other in abundance fitness: -0.185 ± 0.22 for the first, -0.034 ± 0.093 for the second.

Q41F and Q41G are within error of each other in abundance fitness: 0.084 ± 0.095 for the first, 0.003 ± 0.034 for the second.

Going from Q41Y to Q41A, the abundance fitness rises from -0.194 ± 0.12 to 0.053 ± 0.044.

Q41K and Q41V are within error of each other in abundance fitness: 0 ± 0.066 for the first, -0.054 ± 0.04 for the second.

Going from Q41H to G18S, the abundance fitness falls from 0.149 ± 0.11 to -0.241 ± 0.1.

G18L and G18F are within error of each other in abundance fitness: -0.724 ± 0.46 for the first, -0.663 ± 0.32 for the second.

Compared with G18D, K61E is higher in abundance fitness: -0.394 ± 0.12 for the first, -0.022 ± 0.056 for the second.

Compared with K61W, K61L is lower in abundance fitness: -0.07 ± 0.052 for the first, -0.198 ± 0.046 for the second.

K61T and K61H are within error of each other in abundance fitness: -0.132 ± 0.053 for the first, -0.265 ± 0.18 for the second.

L64C and L64P are within error of each other in abundance fitness: -0.499 ± 0.14 for the first, -0.711 ± 0.24 for the second.

L64D and L64Y are within error of each other in abundance fitness: -0.652 ± 0.36 for the first, -0.144 ± 0.19 for the second.

Going from L64W to L64F, the abundance fitness rises from -0.948 ± 0.19 to -0.337 ± 0.34.

L64M and L64A are within error of each other in abundance fitness: -0.323 ± 0.12 for the first, -0.513 ± 0.07 for the second.

Going from R1W to R1C, the abundance fitness rises from -0.134 ± 0.033 to -0.053 ± 0.038.

I58V and I58T are within error of each other in abundance fitness: -0.035 ± 0.048 for the first, 0.033 ± 0.081 for the second.

I58F and I58E are within error of each other in abundance fitness: -0.075 ± 0.088 for the first, -0.023 ± 0.069 for the second.

I58A and L50R are within error of each other in abundance fitness: 0.041 ± 0.053 for the first, 0.012 ± 0.036 for the second.

L50N and L50K are within error of each other in abundance fitness: -0.032 ± 0.04 for the first, 0.029 ± 0.049 for the second.

First: L50H
Second: F10T
The abundance fitness of the first is higher: 0.044 ± 0.045 for the first, -0.853 ± 0.073 for the second.

Compared with F10Q, F10L is higher in abundance fitness: -1.04 ± 0.09 for the first, -0.515 ± 0.031 for the second.

F10H and F10N are within error of each other in abundance fitness: -0.92 ± 0.12 for the first, -0.822 ± 0.093 for the second.

Going from F10G to E70V, the abundance fitness rises from -0.897 ± 0.035 to -0.176 ± 0.026.

Compared with E70Y, Q12K is higher in abundance fitness: -0.145 ± 0.046 for the first, -0.029 ± 0.039 for the second.

First: Q12D
Second: Q12V
The abundance fitness of the first is higher: -0.027 ± 0.047 for the first, -0.117 ± 0.03 for the second.

D23L and D23H are within error of each other in abundance fitness: -0.281 ± 0.06 for the first, -0.156 ± 0.1 for the second.

Going from D23W to D23T, the abundance fitness rises from -0.405 ± 0.098 to -0.118 ± 0.066.

Going from A7T to A7F, the abundance fitness falls from -0.138 ± 0.033 to -0.721 ± 0.069.

First: A7E
Second: A7P
The abundance fitness of the first is lower: -0.884 ± 0.058 for the first, -0.525 ± 0.041 for the second.

First: A7V
Second: A7D
The abundance fitness of the first is higher: 0.007 ± 0.025 for the first, -1.11 ± 0.14 for the second.

A7Y and A7G are within error of each other in abundance fitness: -0.708 ± 0.088 for the first, -0.594 ± 0.028 for the second.

H54D and H54F are within error of each other in abundance fitness: -0.039 ± 0.061 for the first, -0.02 ± 0.1 for the second.

H54N and N55H are within error of each other in abundance fitness: -0.075 ± 0.084 for the first, -0.06 ± 0.096 for the second.

N55C and N55A are within error of each other in abundance fitness: -0.036 ± 0.13 for the first, 0.023 ± 0.041 for the second.

For N55F, the abundance fitness was -0.18 ± 0.12.
